Data as given in US6265551A, “Form of dipeptidylpeptidase IV (CD26) found in human serum, antibodies thereto, and uses thereof” (Dana-Farber Cancer Institute, Inc., priority 1996, dated 2001).

Substrate: NCC(=O)N1CCC[C@H]1C(=O)Nc1ccc([N+](=O)[O-])cc1
Test: purified protein, by the assay type
Details: other: rsCD26; Lineweaver-Burke transformation; substrate at different concentrations; 20.0 °C
Experimental: The DPPIV enzyme activities of the rsCD26 and serum DPPIV were analyzed by Michaelis-Menten kinetics by assessing kinetics of hydrolysis of substrate at different concentrations.
DPPIV activity: The primary substrate used for determining DPPIV activity in all assays was Gly-Pro-p-nitroanilide (Gly-Pro-pNA; Sigma), which is hydrolyzed by DPPIV to release pNA absorbing strongly at 405 nm. Kinetic assays were performed using varying amounts of substrate in order to obtain estimates of the Km and Vmax using standard Michaelis-Menten kinetics. For screening assays of DPPIV activity, 150 ml of substrate was used at 1 mg/ml (2 mM final concentration) in phosphate buffer (pH7.6, 100 mM) in 96 well flat-bottomed microtiter plates together with 10 ml of appropriately diluted sample. For samples obtained after elution from the s-Sepharose column, the pH was raised to pH7.6 by addition of 25 μl of 1M Tris-HCl, pH7.6 to the reaction mixture. One unit (U) of enzyme activity was defined as the amount of enzyme that cleaved 1 mmol of Gly-Pro-pNA/min at pH7.6 and 20° C. […] The pH optimum was determined substituting phosphate buffer (100 mM, pH4.5-pH9) in place of standard incubation buffer.

B1: recombinant soluble CD26 (rsCD26), full extracellular domain of human T cell membrane CD26/DPPIV, 105 kDa form, from transfected CHO cells (Homo sapiens) (protein)
chain: NKGTDDATADSRKTYTLTDYLKNTYRLKLYSLRWISDHEYLYKQENNILVFNAEYGNSSVFLENSTFDEFGHSINDYSISPDGQFILLEYNYVKQWRHSYTASYDIYDLNKRQLITEERIPNNTQWVTWSPVGHKLAYVWNNDIYVKIEPNLPSYRITWTGKEDIIYNGITDWVYEEEVFSAYSALWWSPNGTFLAYAQFNDTEVPLIEYSFYSDESLQYPKTVRVPYPKAGAVNPTVKFFVVNTDSLSSVTNATSIQITAPASMLIGDHYLCDVTWATQERISLQWLRRIQNYSVMDICDYDESSGRWNCLVARQHIEMSTTGWVGRFRPSEPHFTLDGNSFYKIISNEEGYRHICYFQIDKKDCTFITKGTWEVIGIEALTSDYLYYISNEYKGMPGGRNLYKIQLSDYTKVTCLSCELNPERCQYYSVSFSKEAKYYQLRCSGPGLPLYTLHSSVNDKGLRVLEDNSALDKMLQNVQMPSKKLDFIILNETKFWYQMILPPHFDKSKKYPLLLDVYAGPCSQKADTVFRLNWATYLASTENIIVASFDGRGSGYQGDKIMHAINRRLGTFEVEDQIEAARQFSKMGFVDNKRIAIWGWSYGGYVTSMVLGSGSGVFKCGIAVAPVSRWEYYDSVYTERYMGLPTPEDNLDHYRNSTVMSRAENFKQVEYLLIHGTADDNVHFQQSAQISKALVDVGVDFQAMWYTDEDHGIASSTAHQHIYTHMSHFIKQCFSLP
B1 gave a Km of 280 µM.
